Patent publication US20030026781A1, “Compositions and methods for regulating endogenous inhibitor of ATP synthase, including treatment for diabetes” (MitoKor, priority 1999, published 2003)
“Also recorded” adds a separate entry of the source. Where two headings read alike, the source gives them in different places.

B1: rat IF1: intact rat inhibitor protein of mitochondrial ATP synthase (SEQ ID NO:13), comparator for peptide 14-47 (protein, listed as Rattus norvegicus)
chain: MAGSALAVRARLGVWGMRVLQTRGFGSDSSESMDSGAGSIREAGGAFGKREKAEEDRYFREKTREQLAALKKHHEDEIDHHSKEIERLQKQIERHKKKIKYLKNSEH
B2: tat.mito.14-47: fusion protein SEQ ID NO:71: polyhistidine tag, tat, mitochondrial targeting sequence, IF1 fragment 14-47 (protein)
chain: MGGSHHHHHHGMASMTGGQQMGRDLYDDDDKDPSSGYGRKKRRQRRRGMAGSALAVRARLGVWGMRVLQTRGFSIREAGGAFGKREKAEEDRYFREKTREQLAALKK
modifications: Fusion protein

Legend:
[1] = target: T1, mitochondrial ATP synthase (ETC Complex V) in rat liver submitochondrial particles (Rattus norvegicus, UniProt P10719+P15999); assay: Oligomycin-sensitive ATPase (ATP hydrolase) activity in rat liver submitochondrial particles (SMP); assay type: biochemical; conditions: read-out: IC50 for oligomycin-sensitive ATPase inhibition
T1 construct: rat liver submitochondrial particles (SMP) prepared from male Sprague-Dawley rat livers; from tissue; host or cells: male Sprague-Dawley rat liver, submitochondrial particles (method of Walker et al. 1995)
Method: The IF1(42-58) polypeptide was also tested for its ability to inhibit the F0-F1-ATPase in rat ASMPs (alkaline submitochondrial particles) prepared as in the preceding Example. […] ATP hydrolase activity was expressed as the percent of detectable activity in the absence of added IF1-containing fusion protein, and the level of oligomycin-inhibitable activity was also determined (FIG. 8).
The effects of the IF1 peptides on ATPase activity were determined by assaying ATPase in rat liver submitochondrial particles (SMP) prepared from male Sprague-Dawley rat livers according to the method of Walker et al. (1995 Meth. Enzymol. 260:163-190). […] Louis, Mo., unless otherwise noted) for 10 min at room temperature. The mixtures were then added to assay buffer (50 mM Tris-HCl, 3.3 mM MgCl2, pH 8.0) in a 96-well plate and ATPase activity was initiated by the addition of 1 mM ATP, 1 mM phophoenolypyruvate, 3 U/ml pyruvate kinase, 10 U/ml lactate dehydrogenase and 0.3 mM NADH. Reactions were monitored by recording absorbance in “kinetic read” mode at 340 nm for 10 min at 30° C. in a termperature-controlled Spectromax Plus-384™ 96-well plate reader (Molecular Devices, Inc., Sunnyvale, Calif.) according to the manufacturer's instructions. In this mode, the plate reader recorded an absorbance value for each well at approximately nine-second intervals. A parallel set of reactions was set up identically except for the addition of 10 μg/ml oligomycin, to correct for the component of ATPase activity that was oligomycin-inhibitable.
Dose-response curves were generated for IF1 peptides 14-33 (SEQ ID NO:30), 14-47 (SEQ ID NO:29), 14-46 (SEQ ID NO:67), 14-45 (SEQ ID NO:66), 14-44 (SEQ ID NO:65), 14-43 (SEQ ID NO:64) and 14-42 (SEQ ID NO:63) by setting up SMP ATPase reactions as described above with serial dilutions of the IF1 peptides over a range of several orders of magnitude between 10^−4 and 10^2 μM (FIG. 12). Data were plotted and IC50 values were calculated using Prism software (GraphPad, San Diego, Calif.) according to the nianufacturer's instructions. […]

[2] = system: INS-1 cells; assay: Glucose-stimulated insulin secretion (GSIS) in INS-1 cells with tat.mito.14-47; assay type: cell-based, rat; conditions: 8 mM glucose, varying amounts of fusion protein, FIG. 13
Method: The nucleic acid encoding a tat.mito.14-47 fusion protein was constructed essentially as described in Example 2. The tat.mito.14-47 fusion protein (SEQ ID NO:71) enhanced GSIS in INS-1 cells when used in the assay conditions described as follows. Briefly, INS-1 cells were seeded into 12-well plates containing RPMI media supplemented as described at 0.7×10^6 cells/well and cultured at 37° C., 5% CO2 for 2 days. Cells were preincubated in the presence or absence of varying amounts of tat.mito.14-47 or vehicle control in glucose-free RPMI media supplemented with 1% FCS for 1 hr at 37° C. in a humidified 5% CO2/95% air atmosphere. Cells were rinsed with glucose-free modified KRH buffer (134 mM NaCl, 3.6 mM KCl, 0.5 mM NaH2PO4, 0.5 mM MgCl2, 1.5 mM CaCl2, 10 mM HEPES, 5 mM NaHCO3, 0.1% BSA), incubated in the same buffer for 30 min at 37° C. in a humidified 5% CO2/95% air atmosphere, again in the presence or absence of varying amounts of tat.mito.14-47 or vehicle control. Then fresh modified KRH buffer containing 0.25 mM isobutylmethyl xanthine and 8 mM glucose was added, the cells were stimulated for 30 min at 37° C., 5% CO2 and then culture supernatants were collected. Insulin concentrations in the supernatants were measured by immunoasssay (Alpco ELISA Kit) and normalized to protein (Pierce/BCA Kit) according to the manufacturers' instructions.

| Molecule | IC50 ([1]; pH 6.5) [nM] | IC50 ([1]; pH 7.25) [nM] | IC50 ([1]; pH 8) [nM] | effect on GSIS [2] |
| --- | --- | --- | --- | --- |
| B1 | 190 ± 24 | 420 ± 56 | > 800 | – |
| B2 | – | – | – | enhanced GSIS; also recorded: further induced glucose stimulated insulin secretion in a dose dependent manner |
